Measured values as given in the supplement of paper PMC7877785.
± gives the uncertainty stated by the source.

Assay: self-splicing fitness, log relative to wild type (ln ratio); higher = more splicing; Tetrahymena group I intron in knt gene, E. coli kanamycin selection, DiMSum; sequences stand for … in CUCUCU…GGAGGGAAAAGUUAUCAGGCAUGCACCUGGUAGCUAGUCUUUAAACCAAUAGAUUGCAUCGGUUUAAAAGGCAAGACCGUCAAAUUGCGGGAAAGGGGUCAACAGCCGUUCAGUACCAAGUCUCAGGGGAAACUUUGAGAUGGCCUUGCAAAGGGUAUGGUAAUAAGCUGACGGACAUGGUCCUAACCACGCAGCCAAGUCCUAAGUCAACAGAUCUUCUGUUGAUAUGGAUGCAGUUCACAGACUAAAUGUCGGUCGGGGAAGAUGUAUUCUUCUCAUAAGAUAUAGUCGGACCUCUCCUUAAUGGGAGCUAGCGGAUGAAGUGAUGCAACACUGGAGCCGCUGGGAACUAAUUUGUAUGCGAAAGUAUAUUGAUUAGUUUUGGAGUACUCGUGGUCG
How it was run: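 A randomised library covering all eight P1ex-region intron nucleotides was built with the intron in the knt kanamycin-resistance gene on pET-22b(+) and held in E. coli BL21(DE3). Cells were grown overnight at 37°C or 30°C on LB agar, with or without 25 μg/mL kanamycin, plus 100 μg/mL carbenicillin, 50 μM IPTG and 0.2% rhamnose, and pooled colonies were amplicon-sequenced on an Illumina HiSeq 2500. DiMSum fitness is the error-weighted combination of wild-type-normalised replicate fold changes, kanamycin versus none.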

Sequence | self-splicing fitness (ln) (30 °C) | self-splicing fitness (ln) (37 °C)
AGGAAGCAAUAUUACGUGAU | -3.24 ± 0.13 | -2.57 ± 0.18
UUCUAGCAAUAUUACGGCUU | -3.3 ± 0.39 | -2.22 ± 0.28
ACUGAGCAAUAUUACGAGAU | -4.18 ± 0.33 | -2.27 ± 0.21
CGGUAGCAAUAUUACGUGGA | -4.03 ± 0.27 | -2.26 ± 0.17
CGGCAGCAAUAUUACGAAAG | -0.748 ± 0.1 | -0.538 ± 0.12
CCAUAGCAAUAUUACGUAGU | -3.93 ± 0.24 | -2.14 ± 0.23
AGUAAGCAAUAUUACGAUCA | 0.197 ± 0.16 | -0.44 ± 0.15
AAUCAGCAAUAUUACGAGGG | -1.68 ± 0.088 | -0.681 ± 0.096
GUAUAGCAAUAUUACGCGAC | -2.49 ± 0.3 | 
AAAAAGCAAUAUUACGUUCU | -0.294 ± 0.066 | -0.0468 ± 0.083
AAUUAGCAAUAUUACGGAAG |  | -0.915 ± 0.42
UGCGAGCAAUAUUACGUGAG | -4.57 ± 0.36 | -2.63 ± 0.18
CUUCAGCAAUAUUACGGCAA | -2.87 ± 0.48 | -1.92 ± 0.41
GACGAGCAAUAUUACGGACG | -1.64 ± 0.21 | -2.33 ± 0.31
ACUUAGCAAUAUUACGUUUC | -4.28 ± 0.31 | -2.78 ± 0.27
CGGUAGCAAUAUUACGCAAA |  | -1.6 ± 0.42
GAUGAGCAAUAUUACGUUAC | -2.14 ± 0.13 | -0.982 ± 0.23
UGCGAGCAAUAUUACGCACC | -3.32 ± 0.31 | -2.72 ± 0.42
GCCGAGCAAUAUUACGCGCU | -1.78 ± 0.2 | -2.77 ± 0.34

Sequence | self-splicing fitness (ln) (30 °C) | self-splicing fitness (ln) (37 °C)
UGCUAGCAAUAUUACGGUUU | -1.27 ± 0.062 | -0.216 ± 0.073
GGUAAGCAAUAUUACGAUAU | -0.847 ± 0.15 | 0.242 ± 0.2
ACAGAGCAAUAUUACGCUAU | -3.38 ± 0.27 | -1.12 ± 0.19
UCAUAGCAAUAUUACGCCAG | -1.74 ± 0.17 | -2.4 ± 0.19
AAACAGCAAUAUUACGAUGG | -3.16 ± 0.15 | -1.27 ± 0.16
UACGAGCAAUAUUACGUUAG | -3.03 ± 0.17 | -2.32 ± 0.19
CUUUAGCAAUAUUACGUGCG | -2.29 ± 0.14 | -1.12 ± 0.12
ACGCAGCAAUAUUACGACCG | -0.348 ± 0.15 | -0.0722 ± 0.19
UAACAGCAAUAUUACGAGUU | -2.87 ± 0.11 | -1.8 ± 0.12
GUGAAGCAAUAUUACGGGGA | -2.85 ± 0.22 | -2.64 ± 0.29
CAUGAGCAAUAUUACGGCCU | -2.67 ± 0.19 | -2.19 ± 0.25
UCGCAGCAAUAUUACGAGCU | -3.14 ± 0.39 | -2.22 ± 0.26
UGCCAGCAAUAUUACGCCCC | -2.29 ± 0.26 | -1.44 ± 0.29
CUCAAGCAAUAUUACGUUAA | -4.15 ± 0.3 | -2.76 ± 0.19
UACCAGCAAUAUUACGGACC | -0.962 ± 0.071 | -0.872 ± 0.086
GGAUAGCAAUAUUACGGCGA | -0.101 ± 0.15 | -0.302 ± 0.12
AUCAAGCAAUAUUACGUCAG | -3.41 ± 0.18 | -1.92 ± 0.16
GGUGAGCAAUAUUACGGGAG | -1.79 ± 0.28 | -2.68 ± 0.48
GAACAGCAAUAUUACGGGGU | -2.39 ± 0.081 | -2.57 ± 0.15
